In patent US20220041691A1, “METHODS FOR DIAGNOSING OR TREATING POST-TRAUMATIC STRESS DISORDER, AND COMPOSITIONS THEREFOR” (Centre for Addiction and Mental Health, priority 2018, published 2022):
“Also recorded” adds a separate entry of the source. Read-outs that look alike come from different tables or passages of the source. Ends that are not written are not given here.

How the values were obtained:
[1] = target: T1, FKBP51-TPR (Homo sapiens, UniProt Q13451); experiment: Surface plasmon resonance, binding of FKBP51 TPR domain to GR and its phosphorylation mutants; details: Flag-tagged GR immobilized on sensor chip, 25° C.
T1 construct: made in house; host or cells: bacteria
T1 sequence (Q13451 258-457): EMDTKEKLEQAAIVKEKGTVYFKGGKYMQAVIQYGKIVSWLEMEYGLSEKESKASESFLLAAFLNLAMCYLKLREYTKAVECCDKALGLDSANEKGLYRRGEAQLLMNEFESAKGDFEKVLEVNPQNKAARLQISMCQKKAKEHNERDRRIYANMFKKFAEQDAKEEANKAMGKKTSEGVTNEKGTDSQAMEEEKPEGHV
Experimental: The binding of FKBP51 TPR domain to GR and its phosphorylation mutants was determined by surface plasmon resonance using a Reichert SR7500DC instrument. Experiments were conducted at 25° C. with 2000 RU HEK293 expressed FLAG-tagged GR bound onto a FLAG antibody-coated Dextran 50,000 Da chip. Running buffer (PBS, pH 7.4 with 0.005% Tween 20) was used with a flow rate of 25 μl/min. With association time of 300s and dissociation of 240s, binding signals were determined by injecting various concentrations of the GST-FKBP51_TPR.

[2] = target: T2, FKBP51 (Mus musculus, UniProt Q64378); experiment: GST pull-down of FKBP51 by GST-GR fragments in mouse brain tissue; assay type: binding
T2 construct: from tissue; host or cells: mouse brain
T2 sequence (Q64378 1-456): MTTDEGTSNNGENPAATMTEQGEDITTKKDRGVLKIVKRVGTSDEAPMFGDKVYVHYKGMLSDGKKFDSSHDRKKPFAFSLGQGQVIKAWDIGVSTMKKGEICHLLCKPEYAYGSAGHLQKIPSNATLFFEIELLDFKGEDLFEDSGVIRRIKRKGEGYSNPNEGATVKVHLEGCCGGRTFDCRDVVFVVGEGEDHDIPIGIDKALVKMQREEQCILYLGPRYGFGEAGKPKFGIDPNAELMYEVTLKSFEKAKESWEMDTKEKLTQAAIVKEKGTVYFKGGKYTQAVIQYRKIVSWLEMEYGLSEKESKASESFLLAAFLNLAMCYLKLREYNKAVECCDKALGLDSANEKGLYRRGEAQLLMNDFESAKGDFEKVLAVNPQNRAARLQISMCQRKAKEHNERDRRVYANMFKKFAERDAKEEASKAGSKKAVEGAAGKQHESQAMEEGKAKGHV
From the text: The present inventors identified that if increased GR-FKBP51 complex levels are part of the pathophysiology of PTSD, then disrupting the complex may rescue behaviors related to PTSD. To develop an agent (in this example, a peptide-based agent) capable of blocking the GR-FKBP51 interaction, experiments were first performed to identify the regions of the GR that are important to bind FKBP51 (and vice versa). Initially, GST-fusion proteins were used encoding the amino-terminus (NT) of GR (GRNT) and the carboxyl-terminus (CT) of GR (GRCT) for affinity purification. […] Extending this strategy, GRNT fragments were examined (see FIG. 8, where the 6 tested GRNT fragments, NT-1, NT-2, NT-3, NT-4, NT-5, and NT-6 are shown). […] Similarly, it was determined that the TPR (tetratricopeptide repeat) domains of FKBP51 bind GR (FIG. 2D). In these studies, GST-fusion proteins of 3 different portions of the FKBP51 protein were prepared (FK1, FK2, and TPR, see FIG. 9) and tested. The TPR fragment was identified as containing the relevant interaction region.
GST-fusion proteins encoding truncated GR fragments were amplified by PCR from full-length human cDNA clones. All constructs were sequenced to confirm the absence of PCR-generated errors. GST-fusion proteins were prepared from bacterial lysates with glutathione sepharose 4B beads as instructed by the manufacturer (Amersham).^25 To construct GST-fusion proteins encoding truncated GR, cDNA fragments were amplified by using PCR with specific primers. 5′ and 3′ oligonucleotides incorporated with specific restriction enzyme sites were used to facilitate sub-cloning into the pGEX-4T3 vector. To confirm appropriate splice fusion and correct nucleotide sequences, all constructs were re-sequenced.

[3] = target: T3, glucocorticoid receptor (GR), endogenous, mouse brain / mouse lymphocyte lysate (mouse, UniProt P06537 1-792, limits assumed); experiment: GST pull-down from mouse brain tissue, Western blot
T3 construct: Endogenous protein in tissue lysate; other cellular proteins are present in the co-IP and pull-down experiments; also called mouse GR
T3 sequence (looked up): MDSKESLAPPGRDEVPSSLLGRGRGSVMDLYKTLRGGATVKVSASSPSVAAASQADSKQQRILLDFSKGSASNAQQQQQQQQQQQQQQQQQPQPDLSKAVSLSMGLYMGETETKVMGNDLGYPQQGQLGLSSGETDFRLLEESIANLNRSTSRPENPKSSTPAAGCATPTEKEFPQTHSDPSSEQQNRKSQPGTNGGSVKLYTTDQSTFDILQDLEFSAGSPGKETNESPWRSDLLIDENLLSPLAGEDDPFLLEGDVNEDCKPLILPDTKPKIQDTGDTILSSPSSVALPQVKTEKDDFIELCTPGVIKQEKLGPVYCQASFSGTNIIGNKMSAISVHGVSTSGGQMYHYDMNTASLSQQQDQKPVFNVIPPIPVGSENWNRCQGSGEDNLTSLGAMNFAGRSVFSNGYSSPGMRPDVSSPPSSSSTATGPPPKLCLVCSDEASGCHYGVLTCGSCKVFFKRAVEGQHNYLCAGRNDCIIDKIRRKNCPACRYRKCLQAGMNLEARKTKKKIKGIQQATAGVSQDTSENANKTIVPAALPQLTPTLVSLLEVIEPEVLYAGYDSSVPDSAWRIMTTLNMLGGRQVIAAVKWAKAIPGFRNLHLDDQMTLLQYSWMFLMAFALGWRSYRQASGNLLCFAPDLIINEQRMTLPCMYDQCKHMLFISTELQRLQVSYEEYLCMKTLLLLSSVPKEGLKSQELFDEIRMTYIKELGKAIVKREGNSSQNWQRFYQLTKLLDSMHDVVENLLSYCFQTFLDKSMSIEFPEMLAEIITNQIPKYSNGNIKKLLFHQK

[4] = target: T4, FK506 Binding Protein 51 (FKBP51), endogenous, mouse brain / mouse lymphocyte lysate (mouse, UniProt Q64378 1-456); experiment: as above
T4 construct: Endogenous protein in tissue lysate; also called mouse FKBP51
T4 sequence (looked up): T2 sequence (Q64378 1-456)

WT GR: Flag-tagged wild-type glucocorticoid receptor expressed in HEK293
Kd ([1]; figure legend values, read-out: KD for binding FKBP51-TPR (SPR)): 3.31 µM
Kd ([1]; read-out: KD for binding FKBP51 (SPR)): 3.31 ± 0.04 µM

GST-GRNT4-1: GST-fusion protein of GR fragment SPWRSDLLIDENCLL (S211-L225) (also: GST fusion protein)
pull-down (precipitation) of FKBP51 by GST-GR fragment, Western blot [2]: can “pull-down”

B1: GST-FK2 (other)
chain: EDGGIIRRTKRKGEGYSNPNEGATVEIHLEGRCGGRMFDCRDVAFTVGEGEDHDIPIGIDKALEKMQREEQCILYLGPRYGFGEAGKPKFGIEPNAELIYEVTLKSFEKAKESW
notes: also called FKBP51FK2; not shown: glutathione S-transferase (GST) tag; vector stated only for the GR fragments (pGEX-4T3)
binding result [3]: no binding

B2: GST-GRNT6 (other)
chain: FNVIPPIPVGSENWNRCQGSGDDNLTSLGTLNFPGRTVFSNGYSSPSMRPDVSSPPSSSSTATTGPPPKL
notes: not shown: glutathione S-transferase (GST) tag from the pGEX-4T3 vector
binding result [4]: no binding

B3: GST-GRNT3 (other)
chain: SSASTAVSAAPTEKEFPKTHSDVSSEQQHLKGQTGTNGGNVKLYTTDQSTFDILQDLEFSSGSPGKETNE
notes: as for B2
binding result [4]: no binding

B4: GST-TPR2 (other)
chain: ESKASESFLLAAFLNLAMCYLKLREYTKAVECCDKALGLDSANEKGLYRR
modifications: cysteine pairing not given here; also: GST tag fusion, linker not given here
notes: also called FKBP51TPR-2; not shown: glutathione S-transferase (GST) tag; vector stated only for the GR fragments (pGEX-4T3)
binding result [3]: no binding

B5: GST-GRNT2 (other)
chain: SNAQQPDLSKAVSLSMGLYMGETETKVMGNDLGFPQQGQISLSSGETDLKLLEESIANLNRSTSVPENPK
notes: as for B2
binding result [4]: no binding

B6: GST-TPR1 (other)
chain: EMDTKEKLEQAAIVKEKGTVYFKGGKYMQAVIQYGKIVSWLEMEYGLSEK
modifications: also: GST tag fusion, linker not given here
notes: also called FKBP51TPR-1; not shown: glutathione S-transferase (GST) tag; vector stated only for the GR fragments (pGEX-4T3)
binding result [3]: no binding

B7: GST-FK1 (other)
chain: MTTDEGAKNNEESPTATVAEQGEDITSKKDRGVLKIVKRVGNGEETPMIGDKVYVHYKGKLSNGKKFDSSHDRNEPFVFSLGKGQVIKAWDIGVATMKKGEICHLLCKPEYAYGSAGSLPKIPSNATLFFEIELLDFKGEDLF
notes: also called FKBP51FK1; not shown: glutathione S-transferase (GST) tag; vector stated only for the GR fragments (pGEX-4T3)
binding result [3]: no binding

B8: GST-TPR4 (other)
chain: IYANMFKKFAEQDAKEEANKAMGKKTSEGVTNEKGTDSQAMEEEKPEGHV
modifications: also: GST tag fusion, linker not given here
notes: also called FKBP51TPR-4; not shown: glutathione S-transferase (GST) tag; vector stated only for the GR fragments (pGEX-4T3)
binding result [3]: no binding

B9: GST-GRNT5 (other)
chain: EDFIELCTPGVIKQEKLGTVYCQASFPGANIIGNKMSAISVHGVSTSGGQMYHYDMNTASLSQQQDQKPI
notes: as for B2
binding result [4]: no binding

B10: GST-GRNT4: GST-fusion protein of GRNT fragment 4 (protein)
chain: SPWRSDLLIDENCLLSPLAGEDDSFLLEGNSNEDCKPLILPDTKPKIKDNGDLVLSSPSNVTLPQVKTEK
modifications: also: GST fusion protein
pull-down (precipitation) of FKBP51 by GST-GR fragment, Western blot [2]: can “pull-down”
pull-down (precipitation) of FKBP51 by GST-GR fragment, Western blot ([2]; listed as NT-4): best precipitation of FKBP51

B11: GST-GRNT: GST-fusion protein encoding the amino-terminus of GR (protein)
chain: MDSKESLTPGREENPSSVLAQERGDVMDFYKTLRGGATVKVSASSPSLAVASQSDSKQRRLLVDFPKGSVSNAQQPDLSKAVSLSMGLYMGETETKVMGNDLGFPQQGQISLSSGETDLKLLEESIANLNRSTSVPENPKSSASTAVSAAPTEKEFPKTHSDVSSEQQHLKGQTGTNGGNVKLYTTDQSTFDILQDLEFSSGSPGKETNESPWRSDLLIDENCLLSPLAGEDDSFLLEGNSNEDCKPLILPDTKPKIKDNGDLVLSSPSNVTLPQVKTEKEDFIELCTPGVIKQEKLGTVYCQASFPGANIIGNKMSAISVHGVSTSGGQMYHYDMNTASLSQQQDQKPIFNVIPPIPVGSENWNRCQGSGDDNLTSLGTLNFPGRTVFSNGYSSPSMRPDVSSPPSSSSTATTGPPPKL
modifications: left off: a dimerising Fc or GST
notes: GST-fusion protein encoding the amino-terminus of GR
pull-down (precipitation) of FKBP51 by GST-GR fragment, Western blot [2]: can “pull-down”; also recorded: precipitated FKBP51

B12: GST-GRNT1 (other)
chain: MDSKESLTPGREENPSSVLAQERGDVMDFYKTLRGGATVKVSASSPSLAVASQSDSKQRRLLVDFPKGSV
notes: as for B2
binding result [4]: no binding

B13: GST-GRCT (GST fusion of the carboxyl-terminus of GR) (other)
chain: CLVCSDEASGCHYGVLTCGSCKVFFKRAVEGQHNYLCAGRNDCIIDKIRRKNCPACRYRKCLQAGMNLEARKTKKKIKGIQQATTGVSQETSENPGNKTIVPATLPQLTPTLVSLLEVIEPEVLYAGYDSSVPDSTWRIMTTLNMLGGRQVIAAVKWAKAIPGFRNLHLDDQMTLLQYSWMFLMAFALGWRSYRQSSANLLCFAPDLIINEQRMTLPCMYDQCKHMLYVSSELHRLQVSYEEYLCMKTLLLLSSVPKDGLKSQELFDEIRMTYIKELGKAIVKREGNSSQNWQRFYQLTKLLDSMHEVVENLLNYCFQTFLDKTMSIEFPEMLAEIITNQIPKYSNGNIKKLLFHQK
notes: as for B2
binding result [4]: no binding
